This passage reports homo-interaction lifetime results from patent publication US20180022805A1.

Some results are limits rather than exact numbers.

This experiment concerns the target pre-B cell receptor (pre-BCR) on the surface of live BCP-ALL cells (human) (UniProt P15814). The experiment is described as follows: single particle tracking with hidden Markov model (Viterbi plot), one receptor pair on 697 cells.

Chain of pre-B cell receptor (pre-BCR) on the surface of live BCP-ALL cells (chain): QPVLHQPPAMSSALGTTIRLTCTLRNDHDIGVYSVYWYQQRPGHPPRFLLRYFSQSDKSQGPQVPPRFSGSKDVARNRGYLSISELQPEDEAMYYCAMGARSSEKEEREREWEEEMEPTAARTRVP
Chain of pre-B cell receptor (pre-BCR) on the surface of live BCP-ALL cells (P15814 38-213): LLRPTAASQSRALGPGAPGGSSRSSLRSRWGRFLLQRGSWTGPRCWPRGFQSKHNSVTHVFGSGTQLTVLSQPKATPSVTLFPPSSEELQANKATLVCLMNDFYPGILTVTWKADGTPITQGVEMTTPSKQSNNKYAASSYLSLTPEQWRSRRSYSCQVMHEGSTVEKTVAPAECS
Chain of pre-B cell receptor (pre-BCR) on the surface of live BCP-ALL cells (P11912 33-226): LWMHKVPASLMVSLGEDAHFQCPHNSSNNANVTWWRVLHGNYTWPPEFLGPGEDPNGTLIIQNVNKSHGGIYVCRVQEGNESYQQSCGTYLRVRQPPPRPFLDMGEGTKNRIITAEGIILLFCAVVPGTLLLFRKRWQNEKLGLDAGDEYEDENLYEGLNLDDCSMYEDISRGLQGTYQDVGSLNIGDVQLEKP
Chain of pre-B cell receptor (pre-BCR) on the surface of live BCP-ALL cells (P40259 29-229): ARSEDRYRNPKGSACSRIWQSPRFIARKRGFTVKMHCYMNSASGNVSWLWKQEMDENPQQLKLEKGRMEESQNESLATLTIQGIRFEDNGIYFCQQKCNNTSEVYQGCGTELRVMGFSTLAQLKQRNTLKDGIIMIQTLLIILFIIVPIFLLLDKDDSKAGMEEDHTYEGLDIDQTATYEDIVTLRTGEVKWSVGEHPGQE

For “pre-B cell receptor (pre-BCR) on the surface of live BCP-ALL cells (from UniProt P15814 38-213; P11912 33-226; P40259 29-229)”, the homo-interaction lifetime was below 3 s.
